Measurements reported in article PMC4395482 (The Journal of Cell Biology, 2015).

Target: the molecule itself
Test: crystal structure

B1: hSac2 domain of human Sac2 (aa 593–760) (domain or fragment, UniProt Q9Y2H2 593-760, looked up)
chain: RSHQELISQLLQSYMKLLLPDDEKFHGGWALIDCDPSLIDATHRDVDVLLLLSNSAYYVAYYDDEVDKVNQYQRLSLENLEKIEIGPEPTLFGKPKFSCMRLHYRYKEASGYFHTLRAVMRNPEEDGKDTLQCIAEMLQITKQAMGSDLPIIEKKLERKSSKPHEDII
modifications: selenomethionine (selenomethionine protein crystals)
For B1, the “stoichiometry N” value was 2.
